Test: yeast display, Sf9 membrane polyspecificity reagent, FACS + sequencing; frameworks hold sequencing errors
Procedure, shortened: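 Sorting gates, low and high (top ~1%), were placed on anti-HA fluorescence to track expression and on streptavidin fluorescence to track reagent binding. A clone's polyreactivity label is taken from the gate it came out of. The reagent was 10% biotinylated, detergent-solubilized Sf9 membrane, applied for 1 hour at 4 °C to galactose-induced yeast display cells.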

Q: For “QVQLVESGGGLVQAGGSLRLSCAASGLTFEKYSMGWYRQAPGKERELVAAISQDGGSTYYADSVKGRFTISRDNAKNTVYLQMNSVKPEDTAVYYCAAEDPDSWLPWDLFDYWGQGTQVTVSS”, which “polyreactivity (PSR sort gate)” value is on record?
A: The value was “low polyreactivity”.

Q: Which “polyreactivity (PSR sort gate)” value does the source give for “QVQLVESGGGLVQAGGSLRLSCAASGSIFRGYTMGWYRQAHGKERELVAAITSGDSTNYADSVKGRFTISRDNAKNTVYLQMKSLKPEDTAVYSCAAVTRFYTKYYWGQGTQVTVSS” here?
A: Its value is “high polyreactivity”.

Q: For “QVQLVESGGGLVQAGGSLRLSCAASGIILDEYAMGVYSQAPGKERELVAAITWIGGSTYADSVKGRFTISRDNAKNTVYLQMNRLKPEDTAVYYCAADYPSLFVCYGYGWYNYDYWGQGTQVTVSS”, which “polyreactivity (PSR sort gate)” value is on record?
A: Its value is “low polyreactivity”.

Q: With “QVQLVESGGGLVQAGGSLRLSCAASGRTFLRYAMGWYRQAPGKERELVAAITYGGRTNYADSVKGRFTISRDNAKNTVYLQMNSLKPEDTAVYYCAADRTYYYGLRVDYWGQGTQVTVSS” as the sequence, how does the “polyreactivity (PSR sort gate)” value read?
A: Its value is “high polyreactivity”.

Q: With “QVQLVESGGGLVQAGGSLRLSCAASGRIFDYYTMGWYRQAPGKERELVAAISVRGGSTYYADSVKGRFTNSRDNAKNTVYLQMNSLKPEDTAVYYCAARSWRHRTYYYWGQGTQVTVSS” as the sequence, how does the “polyreactivity (PSR sort gate)” value read?
A: Its value is “high polyreactivity”.

Q: Which “polyreactivity (PSR sort gate)” value does the source give for “QVQLVESGGGLVQAGGSLRLSCAASGRTLYIYAMGWYREAPGKERELVAAITNGGTTYADSVKGRFTISRDNAKNTVYLQINSLKPEDTAVYYCNADLRVSRITQYEYWGQGTQVTVSS” here?
A: The value was “low polyreactivity”.

Q: For “QVQLVESGGGLVQAGGSLRLSCAASGSTFRYYTMGWYRQAPGKERELVARISWSGGSTYYAYSVKGRFTISRDNAKYTVYLQMNSLKPEDTAVYYCNAVLFYFQTRDYWGQGTQVTVSS”, which “polyreactivity (PSR sort gate)” value is on record?
A: The value was “high polyreactivity”.

Q: Which “polyreactivity (PSR sort gate)” value does the source give for “QVQLVESGGGIVQAGGSLRLSCAASGSTFDGYAMGWYRQAPGKERELVAAITRSGGSTYYADSVKGRFTISRDNAKNTVYLQMNSLKPEDTEVYYCNKYGYKGGVGYDYWGQGTQVTVSS” here?
A: Its value is “high polyreactivity”.

Q: For “QVQLVESGGGLVQAGGSLRLSCAASGLIFLWYAMGWYRQAPGKERELVAAIRSSGDSTYYADSVKGRFTISRDNAKNTVYLQMNSLKPEDTAVYYCNRRKTNSRYDYWGQGTQVTVSS”, which “polyreactivity (PSR sort gate)” value is on record?
A: Its value is “low polyreactivity”.

Q: With “QVQLVETGGGLVQAGGSLRLSCAASGRTFHRYAVGWYRQAPGKVRELVAAISFSGGSTYYADSVKGRFTISRDNAKNTVYLQMNSLKPEDTAVYYCAPRAVWSSWGRRYDSWGEGTQVTVSS” as the sequence, how does the “polyreactivity (PSR sort gate)” value read?
A: The value was “high polyreactivity”.

Q: For “QVQRVESGGGLVQAGASLRLSCSASGRTFSRYAMGWYRQAPGKERELVAAIRGNSGNTYYADSVKGRFTISRDNAKNTVYLQMNSLKPEDTAVYYCAKPFNIWGQGTQVTVSS”, which “polyreactivity (PSR sort gate)” value is on record?
A: The value was “high polyreactivity”.

Q: Which “polyreactivity (PSR sort gate)” value does the source give for “QFQLEESRGGLVQAGGSLRLSCAASGRIFDLYAMGWYRQAPGKETELVATISGSGGSTYYADSVKGRFTISRDNAKNTVYLQMNSLKPEDTAVYYCAAVSVSSWYDYWGQGTQVTVSS” here?
A: The value was “low polyreactivity”.

Q: For “QVQLVESGGGLVQAGGSHRLSCAASGRIFGRNAMGCYRQAPGKERELVATITSGGGTNYADSVKGRFTISRDNAKNTVYLQMNSLKPEDTAVYYCAATVAILRKFWMDYWGQGTQVTVSS”, which “polyreactivity (PSR sort gate)” value is on record?
A: The value was “low polyreactivity”.

Q: For “QVQLVESGGGLVQAGGSLRLSCAASGYTFGNYAMGWYRQAPGKERELVAGISWSGGSTYYADSVKGRFTISRDNAKNTVYLQMNSLKPEDTAVYYCATRVQGYHNGWYDYWGQGTQVTVSS”, which “polyreactivity (PSR sort gate)” value is on record?
A: The value was “high polyreactivity”.

Q: Which “polyreactivity (PSR sort gate)” value does the source give for “QVQLVESGGGLVQAGRSLRLSCAASGSILGGNAMGWYRQAPGKDRELVAAITFSGGGTYYADSVKGRFTISRDNAKNTVDFQMNSLKPEDTAVYYCAADKVGYTYEFDYWGQGTQVTVSS” here?
A: Its value is “low polyreactivity”.

Q: Which “polyreactivity (PSR sort gate)” value does the source give for “QVQLVESGGGLVQAGGSLRLSCAASGRIFDLNAMGWYRQAPGKETELVAAISYSGGRTFYADSVKGRFTISRDNAKNTVYLQMNSLKPEDTAVYYCNARYGKPAYQYGMDYWGQGTQVTVSS” here?
A: Its value is “low polyreactivity”.

Source: the nanobody polyreactivity screen of Harvey et al. (2022)
